Reference: the supplement of paper PMC9170038

Legend:
[1] = tested on: K4 kissing-loop RNA reporter; assay: apparent KD of K4 kissing-loop reporter; higher = weaker reporter binding; conditions: Eterna round: R107;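 also: bound reporter read as fluorescence of individual clusters on recovered sequencing chips by microscopy, with normalized cluster intensities fitted with a binding model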
Protocol: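 RNA-MaP round R107: designed RNA switches with theophylline, tryptophan, arginine or FMN aptamers are transcribed on-chip within common flanks. They are titrated with a labelled K4 kissing-loop RNA reporter in RNA-MaP buffer (100 mM Tris pH 7.5, 80 mM KCl, 4 mM MgCl2), without ligand or with the indicated ligand. Median apparent KD per design.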

MS2 coat protein = assay: apparent KD of MS2 coat protein; designed switch direction (-1 OFF switch, 1 ON switch): -1; higher = weaker reporter binding
How it was run: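 The buffer was Tris-HCl pH 7.5 with KCl, MgCl2, BSA, DTT, tRNA and Tween-20. In it, SNAP-549-labelled MS2 coat protein was titrated in doubling steps from 0.7 or 1.5 nM to 3 µM over chip-bound RNA switches transcribed by stalled E. coli RNA polymerase on Illumina chips. Apparent KD is the per-design median over clusters of curve fits to normalised fluorescence.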

[2] = input ligand: theophylline 20 uM
[3] = input ligand: tryptophan 2.4 mM
[4] = Eterna round: R95, input ligand: microRNA oligo, concentration not stated

Sequence	apparent KD of K4 kissing-loop reporter ([1]; input ligand: FMN 200 uM) [nM]	apparent KD of K4 kissing-loop reporter ([1]; input ligand: arginine 13.2 mM) [nM]	apparent KD of K4 kissing-loop reporter ([1]; input ligand: none) [nM]	apparent KD of K4 kissing-loop reporter [1, 2] [nM]	apparent KD of K4 kissing-loop reporter [1, 3] [nM]	apparent KD of MS2 coat protein (MS2 coat protein; [4]) [nM]	apparent KD of MS2 coat protein (MS2 coat protein; Eterna round: R95, input ligand: FMN 200 uM) [nM]	apparent KD of MS2 coat protein (MS2 coat protein; Eterna round: R95, input ligand: none) [nM]	apparent KD of MS2 coat protein (MS2 coat protein; input ligand: FMN 200 uM) [nM]	apparent KD of MS2 coat protein (MS2 coat protein; input ligand: none) [nM]	apparent KD of MS2 coat protein (MS2 coat protein; input ligand: microRNA oligo, concentration not stated) [nM]
AUUAAUAACAGAGGAUAUGCAUUAUUAUUAUUUUUAAAUAAUAAAUGCAGUGAUGUUGCAUAUUAAGCAGAAGGCUGAUUUAUUU [JR_SSFMNB_Sub011]	137	516	484	439	353	–	–	–	–	–	–
AGUGUACAGUCGGCCGCCACUCACUCCUCCUGCGUUAACGAGUGAUGUUUGUUUUUUAGUGGUACGAGGACCGGGACUUCUCUGA [theeternabot_sameState_KL_Trp_B_35]	237	118	275	245	260	–	–	–	–	–	–
AACGCUUGAAUAACAAGCGAAAUAAAUUCGCGAGGACCGGUACGGCCGCCACUCGCUAACUGCGAGUGAUGUUCGAUAAUAAAAU [Mat - Mod of OpenEnded 3 - D15]	103	66.1	136	234	71	–	–	–	–	–	–
UUAGCUCUAUAGAGCAAGAGGUAUACUGAUACCAGAGGCUAUAGCCUCCCUUGGCAGCGGAACGAGUGAUGUUCGAAACCUCAUU [AK5 SS Theophylline A]	754	898	940	799	526	–	–	–	–	–	–
UGUACCGAGUCAGGAUAUAGCGUCGAAAGACGAAAUGGAGUGAUGUUCCUUAAACUGCGAAAGCAGCUAGAAGGGACUUGGUACU [FmnBS 28 #SwitchBubble #StaticStem #DoubleMagnetSystem]	153	234	246	250	239	–	–	–	–	–	–
CCUAUCUCAUACGAUACCAGUGAAAUAAUAUUUAUAAGCAGUGAUGUUGCAUUCCAAGAACACCCUUGGCAGCGUAUGGGAUAGG [Ex Theophylline B K4 19]	168	187	178	189	143	–	–	–	–	–	–
AAAGCAUUGAGAAGGAGCGUGUCGUGGAGUGAUGUUCCAUUGUAGACCUAAGGUCUACAAGCACAGGUAGGUCGCUCAUUGCUAA [JR_Nu_SSArginiB_Sub023]	169	148	173	138	156	–	–	–	–	–	–
UGUACCGAGUCAGGAUAUACCGUCGAAAGACGAAAUGGAGUGAUGUUCCUUAAACUGCGAAAGCAGGUAGAAGGGACUUGGUACU [FmnBS 30 #SwitchBubble #StaticStem #DoubleMagnetSystem]	165	263	267	263	262	–	–	–	–	–	–
GGAUCCACCAGUGAUGUUGGAGUAAUCUCCAAGGAUAUGACGAAAGUCAGAAGGUGGUAAAUAGACGUCAAAGACGUCGGAUCCA [FmnA 22 #SwitchBubble #K4Early]	499	78.3	97.9	234	69	–	–	–	–	–	–
AAGUGAUGUUGUAGUGAUGUUGUGAUGUUGCAGGAUAUAUAGUGAUGUAGAAGGGUAUGUACAGAUUUUUUUUUUGAGUGAUGUU [ffdcmullin]	112	45.5	73.8	59	81.4	–	–	–	–	–	–
GCAAACCUCAGUGAUGUUGAGUAAUCGGAAGGAGCGCGUGAAAACGCAGGUAGGUCGCCGAUACAUGAAGUAUCUUCGUGUUUGC [Arginine A K4 23]	284	365	354	380	274	–	–	–	–	–	–
AGGUGCUACGGAAGGAGCGCACCAGUGAUGUUGGUGUGUGACCGUGACAUGGCAGUCAAGGUGCAGGUAGGUCGCCGUGGCCUUU [Geeseris]	137	108	131	138	136	–	–	–	–	–	–
UGACUUGCCUGAGGAUAUCUAGGAUAUGGAUAAAAUAAAAUAAUAAUGGAGUGAUGUUCCAGAAGGAGAGAAGGCAGGUAAGUCU [KL-XFMN-B16 #DoubleAptamer #SwitchBubble]	190	116	96.1	170	84	–	–	–	–	–	–
GGUAGCAUGGCGGCCGCCACUUGCACUCGUCUUGCAUAUUGGCCUAUGAUAGUAGUGAUGUUACUAAGGACCGGGCCAUGCUACC	266	173	194	178	255	–	–	–	–	–	–
UAUAUAUGAUGUGAUACCAGUGAAAAGCCAGUGAUGUUGGAGGAGCUGGUAUAUAAAUAAGACCCUUGGCAGCACAAUCACGUAU [#01 K4 Theophylline B Exclusion]	227	202	212	221	214	–	–	–	–	–	–
GUGCAAUGAGGAUAUACGUUGGUGGGCAUCUGUGUGCUCCUACAUGAGGAUCACCCAUGUAGAAGGCAUGUCAC [LRO-Excl2-19] (puzzle: Exclusion 2)	–	–	–	–	–	11.7	–	–	–	–	–
UUUUAGAGAGGAUAUAUUUAGUGAAACAUGAGGAUCACCCAUGUAAUUAAAUGGAUGUAAAUAGAAGGCUCAUUUA [Mat - Exclusion 5 - JL mod - D6] (puzzle: Exclusion 5)	–	–	–	–	–	23.7	22.9	26.4	–	–	–
GGGCAAUUAGGAUAUACAUGAGGAUCACCCAUGUGGAAGCCCGGACAGGUAAUCCACUGUAGAAGGGAUUGCGG [Userqube] (puzzle: Exclusion 3)	–	–	–	–	–	13.5	–	–	–	–	–
UGAUCACAUGAGGAUCACCCAUGUCAGGAUAUCUACAUUGAAGCUGCGGCUUCAAUGUAGAGAAGGGACAUAAU [E1/3-B3] (Eterna round: R97, puzzle: Exclusion 1)	–	–	–	–	–	–	–	–	117	355	–
UAUAAUACAUAGGAUAUCGAAUAAAUCAUUUAACGAGAAGGAUGAACAUGAGGAUCACCCAUGUGGUAUCAUGG [Mat - Exclusion 6 - JL Mod - D12] (puzzle: Exclusion 6)	–	–	–	–	–	180	–	–	–	–	–
CCUCAACAGUAGGAUAUCAUAAAACUAUUGUGAUGAGAAGGACUGACAUGAGGAUCACCCAUGUUAACGUGAUA [Exclusion 6 - 5:a] (puzzle: Exclusion 6)	–	–	–	–	–	17.4	–	–	–	–	–
UGAUCUAGCGGAGGAUAUACAUGAGGAUCACCCAUGUAGAUAACAUGACCGUAGUCGUGUAUUGUGUAGAAGGCCGCUAGAUCU [JL ENG2 3.66] (Eterna round: R96, puzzle: Exclusion NG 2)	–	–	–	–	–	–	–	–	40.8	18.8	14.3
